Target: human VLA-1 (alpha 1/beta 1, CD49a/CD29) on IL-2 stimulated human PBMC / T cells (human) (UniProt P56199)
Test: cell-based or functional assay

- % adhesion of IL-2 activated T cells to collagen IV vs no antibody, 10 µg/ml, +PMA: 109%
- % adhesion of IL-2 activated T cells to collagen IV vs no antibody, 10 µg/ml, -PMA: 106%
- % adhesion of T cells to collagen IV vs no antibody, 5 nM mAb, 10 ng/ml PMA: 95.6%
- % adhesion of T cells to collagen IV vs no antibody, 5 nM mAb, no PMA: 9.5%
Substance: Hu IgG4 (antibody)

From patent publication US20060286112A1
